T1: GARS, endogenous in H929 multiple myeloma cells (human, UniProt P41250 37-739, limits assumed)
T1 construct: Native protein pulled down from H929 lysates; also called Glycyl-tRNA synthetase; GlyRS
T1 sequence: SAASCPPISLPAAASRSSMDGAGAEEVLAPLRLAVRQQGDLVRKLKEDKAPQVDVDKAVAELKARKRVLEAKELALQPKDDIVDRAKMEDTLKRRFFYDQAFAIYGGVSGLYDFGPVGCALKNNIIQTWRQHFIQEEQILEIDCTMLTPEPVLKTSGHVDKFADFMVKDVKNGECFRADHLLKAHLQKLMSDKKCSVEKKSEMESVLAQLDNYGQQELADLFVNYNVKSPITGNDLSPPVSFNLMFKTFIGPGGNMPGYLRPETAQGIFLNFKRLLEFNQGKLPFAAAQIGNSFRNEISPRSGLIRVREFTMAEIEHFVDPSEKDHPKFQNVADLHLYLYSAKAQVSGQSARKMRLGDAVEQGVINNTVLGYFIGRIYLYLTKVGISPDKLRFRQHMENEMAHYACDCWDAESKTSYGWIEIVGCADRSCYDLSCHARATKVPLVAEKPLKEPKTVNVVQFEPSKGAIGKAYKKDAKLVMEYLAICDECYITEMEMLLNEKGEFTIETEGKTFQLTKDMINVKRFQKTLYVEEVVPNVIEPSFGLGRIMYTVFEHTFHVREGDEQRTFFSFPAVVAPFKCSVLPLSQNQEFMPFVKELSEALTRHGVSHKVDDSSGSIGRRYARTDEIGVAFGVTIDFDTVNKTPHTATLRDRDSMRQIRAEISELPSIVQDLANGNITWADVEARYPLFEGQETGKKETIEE

T2: CADM1-His (Acro Biosystems) (human, UniProt Q9BY67 45-374)
T2 construct: Bought; also called CADM1/IGSF4A; not shown: His tag of the bought protein
T2 sequence: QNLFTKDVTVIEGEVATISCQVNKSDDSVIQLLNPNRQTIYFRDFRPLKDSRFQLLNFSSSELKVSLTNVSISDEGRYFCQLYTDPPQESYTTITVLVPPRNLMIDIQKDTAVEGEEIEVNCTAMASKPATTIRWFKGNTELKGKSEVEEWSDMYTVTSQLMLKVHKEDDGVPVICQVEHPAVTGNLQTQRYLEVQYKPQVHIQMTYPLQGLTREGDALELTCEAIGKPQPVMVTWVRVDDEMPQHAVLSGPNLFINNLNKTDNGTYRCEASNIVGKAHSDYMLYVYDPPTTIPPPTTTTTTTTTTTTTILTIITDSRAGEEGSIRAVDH

T3: IL13RA1
T3 construct: coated protein in the ELISA; also called IL13RA1-Fc-His (R&D Systems)
T3 chain: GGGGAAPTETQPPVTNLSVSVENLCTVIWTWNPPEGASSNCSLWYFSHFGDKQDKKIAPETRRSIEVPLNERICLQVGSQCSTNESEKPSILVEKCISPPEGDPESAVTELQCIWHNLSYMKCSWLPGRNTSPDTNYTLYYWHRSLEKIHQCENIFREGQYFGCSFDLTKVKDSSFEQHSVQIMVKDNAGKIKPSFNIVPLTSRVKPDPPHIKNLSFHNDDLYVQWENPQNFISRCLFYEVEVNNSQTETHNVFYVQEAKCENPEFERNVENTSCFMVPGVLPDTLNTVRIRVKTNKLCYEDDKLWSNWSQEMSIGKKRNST


Experiments:
[1] = biological target: T1, GARS, endogenous in H929 multiple …; test: flow cytometry, H929 + ICAM1 siRNA; None 1.06; surface target GARS putative
[2] = biological target: T1, GARS, endogenous in H929 multiple …; test: flow cytometry, H929 + CDH18 siRNA; None 443; surface target GARS putative
[3] = biological target: T2, CADM1-His (Acro Biosystems); test: ELISA on coated CADM1-His
Method: (§1) Recombinant purified ECDs (50-150 ng) of each putative target protein were coated, incubated with 150 ng of the indicated primary antibody, and binding was detected using a peroxidase-conjugated anti-human Fab secondary antibody. Heatmap represents averages of technical triplicates. (8B) Target validation via siRNA knockdown. H929 cells were transfected with siRNA pools targeting the putative antibody targets ICAM1, CADM1, and PTPRG. Cells were then subjected to cognate IgG binding analysis via flow cytometry. (NT, non-targeting siRNA).
(§2) ELISA ELISA was conducted as described previously. Briefly, 50-150 ng of antigen was coated overnight in half-area 96-well plates at 4° C., blocked with 3% BSA at 37° C. for 1 h, and 150 ng of chimeric rabbit/human IgG1 was added, incubating for 2 h at 37° C. […] After incubating at 37° C. for 15 min-1 h (depending on intensity of controls), data were acquired using a SpectraMax M5 plate reader (Molecular Devices).

[4] = biological target: T3, IL13RA1; test: ELISA on coated IL13RA1-Fc-His
Method: as §1, §2

Row | Binder | Cells stained (%) [1] [%] | mAb binding (MFI) [2] | binding result [3] | binding result [4]
1 | HW-56 chimeric rabbit-human IgG1 LA/LA/PG (antibody, V domains shown, Fc-silenced (L234A/L235A/P329G) IgG1, kappa; Alexa Fluor 647-labeled in single-step flow cytometry; Cluster C-45) VH: QSVKESEGGLFKPTDTLTLTCTASGFTVSTNAVTWVRQAPGNGLEYIGTIGRSGSAYFASWAKRRSTLTRDINLNTVTLKMTSLTAADTATYFCVRGSPGYRTAISIWGPGTLVTISS VL: AVMTQTPSSTSAAVEGTVTINCQASQSISNRLSWFQQKPGQPPKLLIYQASTLASGVPSRFKGSGSGTEFTLTISGVQREDAATYYCLGSYSSSDASFGGGTKLEIKR | 99.2 | 400000 | no binding (tested: 150 ng IgG1 per well) | –
2 | HW-8 chimeric rabbit-human IgG1 LA/LA/PG (antibody, V domains shown, Fc-silenced (L234A/L235A/P329G) IgG1, kappa; Alexa Fluor 647-labeled in single-step flow cytometry; Cluster C-45) VH: QSLEESGGRLVTPGTPLTLTCTVSGFSLSSYAMSWVRQAPGKGLEWIGAISTGGSTTYASWAKGRFTISKTSSTTVDLKMTSLTTEDTATYFCVRHFRLWGPGTLVTISS VL: QVLTQTPSSVSAAVGGTVTIKCQASQSIGSALAWFQQKPGQRPKLLIYRASNLASGVPSRFKGSGSGTEFALTISGVQREDAATYYCLGGAAAVWAFGAGTNVEIKR | 76.3 | 75300 | – | no binding (tested: 150 ng IgG1 per well)

More lines, main results first:

Row | Cells stained (%) [1] [%] | mAb binding (MFI) [2] | Binder | binding result [3] | binding result [4]
3 | 98.1 | 174000 | HW-16 chimeric rabbit-human IgG1 LA/LA/PG (antibody, V domains shown, Fc-silenced (L234A/L235A/P329G) IgG1, kappa; Alexa Fluor 647-labeled in single-step flow cytometry; Cluster C-45) VH: QSLEESGGRLVTPGTPLTLTCTASGFSLSSYAMSWVRQAPGKGLEWIGTMPTGGGTYYASWAKGRFTISKTSTTVDLQITSPTTEDTATYFCAKHWNIWGPGTLVTISS VL: DIVLTQTPSSTSTAVGDTVTINCRASQSIGRNLAWFQQKPGQPPKLLIYRASNLASGVPSRFKGSGSRTQFTLTISGVQREDAATYYCLGSYSSSDTAFGGGTELEILR | no binding (tested: 150 ng IgG1 per well) | –
4 | 99.1 | 193000 | HW-81 chimeric rabbit-human IgG1 LA/LA/PG (antibody, V domains shown, Fc-silenced (L234A/L235A/P329G) IgG1, lambda; Alexa Fluor 647-labeled in single-step flow cytometry; Cluster C-45) VH: QKQLVESGGGLVTPGGTLTLTCTVSGFSLSSNGVSWVRQAPGKGLEYIGLIRSIGSTYYATWAKGRFTISKTSTTVDLKITSPTTEDTATYFCARGGYRNGFKLWGPGTLVTVSS VL: QPVLTQSPSVSAALGASAKLTCTLSSAHKTYYIEWYQQQHPGKAPRYLMQLQSDGSYTKGTGVPDRFSGSSSGADRYLIISSVQAEDEADYICGVIDSAVYVFGGGTQLTVTG | no binding (tested: 150 ng IgG1 per well) | no binding (tested: 150 ng IgG1 per well)

Reference: patent publication US20260049134A1 (UNIVERSITY OF FLORIDA RESEARCH FOUNDATION, published 2026)
